Substitutions are numbered along the chain they refer to. In names and notes the source's numbering stands.
T1: Kap114p (wild type) (S. cerevisiae, UniProt P53067 1-1004)
T1 construct: Kap114p, S. cerevisiae, full length, amplified from total genomic DNA; GST tag removed with PreScission protease; also called karyopherin-β Kap114p; source: E. coli Rosetta, purified (GST resin, MonoQ, Superdex 200); not shown: GST, N-terminal, cleaved
T1 sequence (looked up): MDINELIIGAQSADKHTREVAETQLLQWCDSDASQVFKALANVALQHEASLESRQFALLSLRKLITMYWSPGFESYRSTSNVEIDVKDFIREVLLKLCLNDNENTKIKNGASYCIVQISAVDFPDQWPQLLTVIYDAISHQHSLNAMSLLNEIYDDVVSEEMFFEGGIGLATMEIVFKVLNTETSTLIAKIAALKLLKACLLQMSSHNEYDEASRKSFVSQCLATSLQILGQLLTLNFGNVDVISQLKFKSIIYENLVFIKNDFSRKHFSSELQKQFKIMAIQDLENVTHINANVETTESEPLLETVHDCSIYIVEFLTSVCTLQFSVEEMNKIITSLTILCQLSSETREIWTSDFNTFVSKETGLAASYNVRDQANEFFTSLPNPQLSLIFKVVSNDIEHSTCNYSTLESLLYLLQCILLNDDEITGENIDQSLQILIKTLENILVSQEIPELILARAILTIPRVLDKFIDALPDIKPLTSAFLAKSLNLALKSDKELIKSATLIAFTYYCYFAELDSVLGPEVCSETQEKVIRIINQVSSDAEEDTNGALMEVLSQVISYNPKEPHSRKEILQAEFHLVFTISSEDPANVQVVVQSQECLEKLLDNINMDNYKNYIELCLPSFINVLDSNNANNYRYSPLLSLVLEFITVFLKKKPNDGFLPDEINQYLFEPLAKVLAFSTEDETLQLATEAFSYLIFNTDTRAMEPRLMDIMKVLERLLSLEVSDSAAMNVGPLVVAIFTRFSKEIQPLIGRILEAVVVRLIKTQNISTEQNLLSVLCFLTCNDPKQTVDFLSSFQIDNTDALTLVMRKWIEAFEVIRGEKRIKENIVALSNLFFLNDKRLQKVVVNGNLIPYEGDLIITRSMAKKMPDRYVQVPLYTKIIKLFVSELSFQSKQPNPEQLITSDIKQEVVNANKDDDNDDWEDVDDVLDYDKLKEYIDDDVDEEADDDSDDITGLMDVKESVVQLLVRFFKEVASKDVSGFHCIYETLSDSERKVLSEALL

T2: Kap95p (S. cerevisiae, UniProt Q06142 1-861)
T2 construct: Kap95p, S. cerevisiae, full length; The purification paragraph is headed for Kap114p proteins; that Kap95p was treated alike is surmised; source: E. coli, GST-tagged construct in modified pGEX6p1; purification told for the GST-tagged proteins; not shown: GST, N-terminal, cleaved
T2 sequence (looked up): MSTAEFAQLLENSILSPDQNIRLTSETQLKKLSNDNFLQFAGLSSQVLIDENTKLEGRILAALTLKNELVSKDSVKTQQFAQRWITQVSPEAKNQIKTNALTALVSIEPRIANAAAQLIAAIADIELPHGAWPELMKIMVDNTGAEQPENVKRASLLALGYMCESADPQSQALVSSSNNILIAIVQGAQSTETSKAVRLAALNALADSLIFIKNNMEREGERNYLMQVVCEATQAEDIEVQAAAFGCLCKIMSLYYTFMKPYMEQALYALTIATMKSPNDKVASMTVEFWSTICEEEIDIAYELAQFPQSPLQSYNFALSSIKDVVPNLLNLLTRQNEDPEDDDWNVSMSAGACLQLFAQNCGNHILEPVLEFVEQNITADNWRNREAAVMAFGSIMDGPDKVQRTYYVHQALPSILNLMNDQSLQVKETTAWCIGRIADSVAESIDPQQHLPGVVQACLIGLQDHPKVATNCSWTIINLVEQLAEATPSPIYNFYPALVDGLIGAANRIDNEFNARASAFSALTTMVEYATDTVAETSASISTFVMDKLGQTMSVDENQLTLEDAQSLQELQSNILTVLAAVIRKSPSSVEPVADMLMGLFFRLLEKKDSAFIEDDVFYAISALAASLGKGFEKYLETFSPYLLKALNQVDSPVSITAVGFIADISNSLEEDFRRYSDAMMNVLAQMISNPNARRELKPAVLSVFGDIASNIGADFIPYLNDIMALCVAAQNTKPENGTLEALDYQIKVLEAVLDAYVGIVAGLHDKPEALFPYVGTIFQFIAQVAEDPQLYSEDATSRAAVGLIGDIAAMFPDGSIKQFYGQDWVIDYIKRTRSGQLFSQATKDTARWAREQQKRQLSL

T3: Kap114pΔ(932-941) (S. cerevisiae, UniProt P53067 1-1004, Δ(932-941))
T3 construct: Kap114p, S. cerevisiae, full length with residues 932-941 deleted; also called Kap114p deletion mutant lacking the α-helix of the HEAT19 loop (a.a. 932-941); source: E. coli Rosetta, purified (GST resin, MonoQ, Superdex 200); not shown: GST, N-terminal, cleaved
T3 sequence (looked up): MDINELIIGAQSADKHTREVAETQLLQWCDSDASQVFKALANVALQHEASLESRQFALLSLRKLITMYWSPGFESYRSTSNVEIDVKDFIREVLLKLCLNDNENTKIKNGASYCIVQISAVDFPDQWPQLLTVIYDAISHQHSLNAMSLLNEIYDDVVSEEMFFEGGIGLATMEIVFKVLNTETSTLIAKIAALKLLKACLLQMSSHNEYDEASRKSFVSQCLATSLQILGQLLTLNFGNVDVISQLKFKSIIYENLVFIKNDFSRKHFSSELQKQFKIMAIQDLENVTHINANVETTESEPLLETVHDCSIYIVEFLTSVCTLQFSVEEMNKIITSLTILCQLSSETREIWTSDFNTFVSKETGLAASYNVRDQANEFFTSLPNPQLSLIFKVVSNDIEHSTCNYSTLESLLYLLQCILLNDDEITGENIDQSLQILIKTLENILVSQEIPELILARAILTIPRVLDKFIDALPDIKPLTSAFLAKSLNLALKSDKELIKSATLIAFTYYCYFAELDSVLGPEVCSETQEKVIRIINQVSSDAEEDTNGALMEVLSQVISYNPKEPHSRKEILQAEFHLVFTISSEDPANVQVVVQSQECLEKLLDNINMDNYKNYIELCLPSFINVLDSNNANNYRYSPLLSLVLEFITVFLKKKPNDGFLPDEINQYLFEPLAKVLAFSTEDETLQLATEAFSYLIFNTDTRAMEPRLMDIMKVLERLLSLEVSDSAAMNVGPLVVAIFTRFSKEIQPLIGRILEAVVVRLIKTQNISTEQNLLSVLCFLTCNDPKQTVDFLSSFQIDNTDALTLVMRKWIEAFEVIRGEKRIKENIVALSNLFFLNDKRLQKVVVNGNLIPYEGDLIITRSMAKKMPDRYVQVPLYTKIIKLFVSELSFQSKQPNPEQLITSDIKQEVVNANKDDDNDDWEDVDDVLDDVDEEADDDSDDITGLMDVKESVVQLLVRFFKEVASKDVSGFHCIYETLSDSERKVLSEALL

T4: Kap114p(Y370A) (S. cerevisiae, UniProt P53067 1-1004, Y370A)
T4 construct: Kap114p, S. cerevisiae, full length, point mutant Y370A; source: E. coli Rosetta, purified (GST resin, MonoQ, Superdex 200); not shown: GST, N-terminal, cleaved
T4 sequence (looked up): T1 sequence (looked up) with Y370A

B1: core domain of yeast TATA-box binding protein (yTBP^C), wild type (domain or fragment, S. cerevisiae, UniProt P13393 61-240, looked up)
chain: SGIVPTLQNIVATVTLGCRLDLKTVALHARNAEYNPKRFAAVIMRIREPKTTALIFASGKMVVTGAKSEDDSKLASRKYARIIQKIGFAAKFTDFKIQNIVGSCDVKFPIRLEGLAFSHGTFSSYEPELFPGLIYRMVKPKIVLLIFVSGKIVLTGAKQREEIYQAFEAIYPVLSEFRKM
notes: 61-240; His tag removed with PreScission protease; also called yTBP core domain; source: E. coli Rosetta, purified (Ni-NTA, HiTrap SP, Superdex 75); not shown: His6, N-terminal, cleaved
B2: yTBP^C (N91A) (domain or fragment, S. cerevisiae, UniProt P13393 61-240, looked up)
chain: B1 chain with N31A
notes: 61-240, point mutant N91A; also called yTBP(N91A); source: E. coli Rosetta, purified (Ni-NTA, HiTrap SP, Superdex 75); not shown: His6, N-terminal, cleaved

Assays:
Conditions in all cases: both partners purified
Kap114p (wild type) [1] = biological target: T1, Kap114p (wild type); test: cryo-EM structure; components purified from E. coli, mixed at an equal molar ratio, cross-linked with 0.01% glutaraldehyde, purified by SEC; Titan Krios 300 keV
Kap95p = biological target: T2, Kap95p; test: ITC; Kap95p with wild type or R141A yTBP^C; which protein was in the cell is not told for Kap95p; n = 3
Kap114p (wild type) [2] = biological target: T1, Kap114p (wild type); test: ITC; MicroCal iTC200, 25 °C, 20 mM HEPES pH 7.4, 150 mM NaCl; 25 or 50 μM wild type or mutant Kap114p in the cell, 250 or 500 μM wild-type or mutant yTBP^C in the syringe; triplicate
Kap114pΔ(932-941) = biological target: T3, Kap114pΔ(932-941); test: as above
Kap114p(Y370A) = biological target: T4, Kap114p(Y370A); test: as above

Binder	stoichiometry N (Kap114p (wild type) [1])	Kd (Kap95p) [µM]	Kd (Kap114p (wild type) [2]) [nM]	Kd (Kap114pΔ(932-941)) [nM]	Kd (Kap114p(Y370A)) [nM]
B1	1	~8.1	~1	~158	
B2					~1500
